Measured values reported in US7351690B2, “Knockout identification of target-specific sites in peptides” (priority 2000, dated 2008).
Square brackets hold non-standard residues; d marks the D form. Ends that are not written are not given here. Nle = CCCC[C@H](N)C(=O)O

Legend:
hMC5-R = target: T1, hMC5-R (Homo sapiens, UniProt P33032); assay: competitive inhibition binding assay, 125I-NDP-alpha-MSH, hMC5-R membranes; conditions: 1 μM test peptide; 0.4 nM 125I-NDP-alpha-MSH; hMC5-R membranes
T1 construct: expressed in transfected cells
Procedure, shortened: (§1)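 Membranes from hMC3-R, hMC4-R, hMC5-R or B-16 cells (MC1-R) incubated 90 min at room temperature with 0.4 nM 125I-NDP-alpha-MSH and rhenium-complexed test peptide, typically 1 μM, in HEPES pH 7.2 with Mg/Ca/K. Filter-bound radioactivity counted; % inhibition of specific binding (1 μM alpha-MSH defines nonspecific), triplicate means.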

hMC3-R = target: T2, hMC3-R (Homo sapiens, UniProt P41968); assay: competitive inhibition binding assay, 125I-NDP-alpha-MSH, hMC3-R membranes; conditions: 1 μM test peptide; 0.4 nM 125I-NDP-alpha-MSH; hMC3-R membranes
T2 construct: expressed in transfected cells
Procedure, shortened: as §1

MC1-R = target: T3, MC1-R (Mus musculus, UniProt Q01727); assay: competitive inhibition binding assay, 125I-NDP-alpha-MSH, B-16 mouse melanoma cell membranes; conditions: 1 μM test peptide; 0.4 nM 125I-NDP-alpha-MSH; B-16 mouse melanoma cell membranes
T3 construct: membranes prepared from hMC3-R, hMC4-R, hMC5-R, and B-16 mouse melanoma cells (containing MC1-R); endogenous in cells; host or cells: B-16 mouse melanoma cells (membranes)
Procedure, shortened: as §1

hMC4-R = target: T4, hMC4-R (Homo sapiens, UniProt P32245); assay: competitive inhibition binding assay, 125I-NDP-alpha-MSH, hMC4-R membranes; conditions: 1 μM test peptide; 0.4 nM 125I-NDP-alpha-MSH; hMC4-R membranes
T4 construct: expressed in transfected cells
Procedure, shortened: as §1

T2 sequence (P41968 whole entry): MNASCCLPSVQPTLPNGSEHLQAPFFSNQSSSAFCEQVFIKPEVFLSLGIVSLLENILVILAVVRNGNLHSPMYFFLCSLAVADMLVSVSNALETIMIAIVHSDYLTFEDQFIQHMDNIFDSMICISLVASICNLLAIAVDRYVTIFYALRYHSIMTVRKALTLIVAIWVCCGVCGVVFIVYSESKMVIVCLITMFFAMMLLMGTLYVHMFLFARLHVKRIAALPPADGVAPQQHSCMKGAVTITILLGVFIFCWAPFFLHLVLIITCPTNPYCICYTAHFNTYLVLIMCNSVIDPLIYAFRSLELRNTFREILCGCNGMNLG
T3 sequence (Q01727 whole entry): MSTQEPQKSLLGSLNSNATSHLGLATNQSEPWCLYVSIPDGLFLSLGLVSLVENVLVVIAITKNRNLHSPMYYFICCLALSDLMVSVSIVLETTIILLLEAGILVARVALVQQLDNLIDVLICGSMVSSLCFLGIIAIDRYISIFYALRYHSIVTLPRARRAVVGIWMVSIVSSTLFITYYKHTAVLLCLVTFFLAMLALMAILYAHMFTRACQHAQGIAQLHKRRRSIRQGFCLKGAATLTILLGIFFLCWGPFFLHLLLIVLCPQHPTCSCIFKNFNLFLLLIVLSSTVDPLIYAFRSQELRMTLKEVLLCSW
T1 sequence (P33032 whole entry): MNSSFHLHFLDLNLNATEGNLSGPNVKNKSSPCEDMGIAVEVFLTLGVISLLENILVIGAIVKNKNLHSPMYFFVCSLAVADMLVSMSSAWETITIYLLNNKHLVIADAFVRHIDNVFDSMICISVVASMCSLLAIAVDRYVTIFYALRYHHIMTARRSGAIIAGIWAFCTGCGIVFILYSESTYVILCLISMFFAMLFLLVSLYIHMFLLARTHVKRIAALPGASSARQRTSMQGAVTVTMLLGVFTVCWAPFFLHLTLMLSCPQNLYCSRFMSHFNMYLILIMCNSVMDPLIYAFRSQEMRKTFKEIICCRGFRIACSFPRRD
T4 sequence (P32245 whole entry): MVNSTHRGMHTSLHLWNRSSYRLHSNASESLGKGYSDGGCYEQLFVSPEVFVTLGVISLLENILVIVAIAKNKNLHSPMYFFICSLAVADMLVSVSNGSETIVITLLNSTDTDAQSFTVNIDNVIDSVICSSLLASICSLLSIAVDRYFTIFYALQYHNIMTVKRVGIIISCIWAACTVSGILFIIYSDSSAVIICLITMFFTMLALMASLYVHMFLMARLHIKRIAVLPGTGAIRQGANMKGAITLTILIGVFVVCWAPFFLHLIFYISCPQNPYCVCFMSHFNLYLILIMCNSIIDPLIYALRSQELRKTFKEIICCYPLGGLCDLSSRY

| Substance | % Inhibition at 1 μM at Melanocortin Receptor 5 (hMC5-R) [%] | % Inhibition at 1 μM at Melanocortin Receptor 3 (hMC3-R) [%] | % Inhibition at 1 μM at Melanocortin Receptor 1 (MC1-R) [%] | % Inhibition at 1 μM at Melanocortin Receptor 4 (hMC4-R) [%] |
| --- | --- | --- | --- | --- |
| Ac-Ser-Tyr-Ser-Nle-Glu-His-Phe-D-Cys-Arg-Trp-Gly-Lys-Pro-Val-NH2 ({Ac-Ser-Tyr-Ser-Nle-Glu-H2N}-F[dC]RWGKPV-NH2; numbers in words are those of the source; also: oxorhenium(V) N3S1 chelate via Cys (Re(V)=O)) [2-7] | 0 | 0 | 54 | 6 |
| Tyr-Val-Nle-Cys-Gly-His-Phe-Arg-Trp-Asp-Arg-Phe-NH2 (YV[Nle]CGHFRWDRF-NH2; not fully specified (bridges); printed as Tyr-Val-Nle-Cys-Gly-His-Phe-Arg-Trp-Asp-Arg-Phe-NH2; numbers in words are those of the source; also: oxorhenium(V) N3S1 chelate (Re=O) with Cys) [4-9] | 43 | 19 | 1 | 4 |
| Tyr-Val-Nle-Gly-His-D-Phe-Cys-Trp-Asp-Arg-Phe-NH2 (YV[Nle]GH[dF]CWDRF-NH2; numbers in words are those of the source; also: oxorhenium(V) N3S1 chelate complex (Re=O)) [5-5] | 28 | 15 | 67 | 26 |
| Ac-Ser-Tyr-Ser-Nle-Cys-Glu-His-Phe-Arg-Trp-Gly-Lys-Pro-Val-NH2 (Ac-SYS[Nle]CEHFRWGKPV-NH2; not fully specified (bridges); printed as Ac-Ser-Tyr-Ser-Nle-Cys-Glu-His-Phe-Arg-Trp-Gly-Lys-Pro-Val-NH2; numbers in words are those of the source; also: oxorhenium(V) N3S1 chelate (Re(V)=O)) [1-10] | 5 | 0 | 72 | 7 |
| Tyr-Val-Nle-Gly-His-Cys-Phe-Arg-Trp-Asp-Arg-Phe-NH2 (YV[Nle]GHCFRWDRF-NH2; numbers in words are those of the source; also: oxorhenium(V) N3S1 chelate (Re=O) with Cys) [4-7] | 15 | 17 | −4 | 4 |
| Ac-Ser-Tyr-Ser-Nle-Glu-His-Phe-Arg-Trp-Cys-Gly-Lys-Pro-Val-NH2 (Ac-SYS[Nle]EHFRWCGKPV-NH2; not fully specified (bridges); printed as Ac-Ser-Tyr-Ser-Nle-Glu-His-Phe-Arg-Trp-Cys-Gly-Lys-Pro-Val-NH2; numbers in words are those of the source; also: oxorhenium(V) N3S1 chelate (Re(V)=O)) [1-5] | 0 | 0 | 57 | 0 |
